Measurements taken from the supplement of paper PMC9732359.
± gives the uncertainty stated by the source.

Test: protein stability index of a GFP-peptide fusion (yeast GPS) (PSI 1-4); higher = more stable; sorted into four equal gates, so the index is relative within each strain
Summary of the method: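 Tiled 17-residue yeast protein peptides were fused downstream of GFP in a plasmid that also expresses Cherry, and the pooled library was carried in yeast. Mid-log cultures in leucine-free medium were sorted into four equal gates by GFP/Cherry fluorescence ratio, and plasmids from each gate were PCR-amplified and Illumina-sequenced, with reads assigned to strains by barcodes. The protein stability index for each peptide was each gate's read frequency times its gate number, summed.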

Sequence	protein stability index (doa10∆)	protein stability index (pdr5∆)	protein stability index (san1∆)	protein stability index (ubr1∆)
TRVNAQLESYEYMVQYI [RRI1]	3.2 ± 0.059	3.23 ± 0.073	3.42 ± 0.058	3.22 ± 0.076
EYINNCKKNTKKCLKLA [POP4]	2.82 ± 0.13	3.1 ± 0.13	2.99 ± 0.077	2.78 ± 0.14
TESPLKTVDSSIQPIES [SSN2]	2.99 ± 0.066	2.93 ± 0.053	2.91 ± 0.053	2.93 ± 0.03
GILRRKSESDELQMRSF [RRP4]	3.06 ± 0.11	3.04 ± 0.17	3.18 ± 0.11	3.16 ± 0.084
AKKKVLDVTKEAQANLL [RPO21]	2.41 ± 0.17	2.73 ± 0.11	–	2.84 ± 0.14
TSLITAVYGPRSIRGSF [MTR3]	2.72 ± 0.073	2.72 ± 0.086	2.55 ± 0.074	2.28 ± 0.058
HDSSNGLFQVLHNFESV [NUT1]	3.16 ± 0.064	3.15 ± 0.064	2.79 ± 0.07	3.242 ± 0.031
NVVEADLKRFVDESLLS [QCR2]	3.14 ± 0.1	3.43 ± 0.1	3.26 ± 0.055	3.46 ± 0.051
FCPIVEEIVSNSSRFSD [YCS4]	1.97 ± 0.1	1.35 ± 0.14	1.68 ± 0.21	2.35 ± 0.057
NDINISSIENNINNNIN [MED2]	2.87 ± 0.044	3 ± 0.047	2.86 ± 0.041	3.11 ± 0.039
NILWAIYNSASKASMQK [YCS4]	1.66 ± 0.13	2.11 ± 0.13	1.58 ± 0.22	2.18 ± 0.077
LSTDATSADLKSKAEEL [UBP6]	3.17 ± 0.24	2.64 ± 0.13	2.95 ± 0.19	3.11 ± 0.21
IIRPILGKVRFANYKLL [SRB4]	1.44 ± 0.045	1.75 ± 0.043	1.14 ± 0.1	1.73 ± 0.057
SQSQQKLLKEKVKLFHG [MED2]	3.1 ± 0.091	3.1 ± 0.093	3.07 ± 0.057	2.81 ± 0.08
TVLFFIGVRCYEAYPNT [FAS1]	1.21 ± 0.054	1.23 ± 0.049	1.66 ± 0.1	1.8 ± 0.043
AKRVENFNSSAPIADDN [DSN1]	3.19 ± 0.084	3.32 ± 0.075	2.9 ± 0.1	3.43 ± 0.059
VTDDPIWMRGHGTYFLD [RRP4]	3.22 ± 0.067	3.17 ± 0.078	3.47 ± 0.056	3.07 ± 0.065
TFGINLIYVNPFMLQWG [FAS1]	2.22 ± 0.067	2.35 ± 0.08	2.46 ± 0.074	2.4 ± 0.051
LVESVDRFKPNLDIAKD [MED4]	3.37 ± 0.29	3.33 ± 0.17	3.15 ± 0.072	2.9 ± 0.15
IWDSQKFFIMIVKGNII [POP4]	1.37 ± 0.069	1.44 ± 0.096	1.38 ± 0.15	1.32 ± 0.083
TVSILQESSSLRLLEVT [POP8]	2.2 ± 0.055	2.38 ± 0.048	2.4 ± 0.083	2.33 ± 0.033
EIAQANSRNAIRKLVKN [RPL19A]	2.9 ± 0.15	3.01 ± 0.083	2.86 ± 0.11	3.1 ± 0.098
GVEQLHYTGISQSACRE [SSN3]	2.69 ± 0.089	2.38 ± 0.085	2.66 ± 0.13	2.56 ± 0.099
NTLYTAIITDDLDTVLK [SRP72]	2.19 ± 0.039	2.5 ± 0.031	2.44 ± 0.041	2.6 ± 0.035
SLSNPNSTATMQHNPLA [PGD1]	2.86 ± 0.04	3.1 ± 0.039	2.96 ± 0.034	2.967 ± 0.029
KKLSKKYNAFIASEVLI [RPL1A]	1.45 ± 0.026	1.9 ± 0.025	1.8 ± 0.052	1.67 ± 0.023

Sequence	protein stability index (doa10∆)	protein stability index (pdr5∆)	protein stability index (san1∆)	protein stability index (ubr1∆)
ANAAKRAEAKAQGVAVQ [RPL21A]	2.55 ± 0.13	1.96 ± 0.13	2.06 ± 0.28	1.92 ± 0.14
VLDSMTKEELESDGRMF [SRP54]	3.02 ± 0.088	3.2 ± 0.089	3.37 ± 0.051	2.27 ± 0.059
RALKVRNAQAQREAAAE [RPS6A]	3 ± 0.14	2.98 ± 0.1	2.74 ± 0.074	2.94 ± 0.13
TKSHNTVQSWLCDLFVN [NUT1]	1.55 ± 0.036	1.46 ± 0.044	1.4 ± 0.09	1.54 ± 0.037
LYENIASSPIILEEGSS [RPN10]	2.2 ± 0.04	2.37 ± 0.047	2.35 ± 0.06	2.35 ± 0.036
DKYKLYPVRIPRLDTSK [YJR042W/NUP85]	3.01 ± 0.075	2.9 ± 0.075	3.12 ± 0.059	3.24 ± 0.065
LILTSHNMKAYYKKFLI [BRR2]	–	–	–	2.54 ± 0.14
SKQDLIHSLIPVAKWFV [SIN4]	2.4 ± 0.076	2.99 ± 0.054	2.9 ± 0.061	2.78 ± 0.08
SNIELAFSSVEHIIRDV [COB]	3 ± 0.087	2.78 ± 0.1	2.79 ± 0.079	2.73 ± 0.11
KRKYLDIPIDEMTLPTS [SSN2]	3.1 ± 0.24	2.81 ± 0.15	2.77 ± 0.19	3.21 ± 0.23
YCKGKTCRKHTQHKVTQ [RPL42A]	2.77 ± 0.094	3.06 ± 0.17	2.54 ± 0.12	2.91 ± 0.14
TTVIGIRGSDQAIPKFQ [RPN2]	–	2.74 ± 0.23	–	–
WGHPTRMLLNLCKSATT [BRR2]	1.47 ± 0.047	1.55 ± 0.046	1.75 ± 0.066	1.35 ± 0.046
YTRYLDRIYMLFHFEED [PRP8]	1.68 ± 0.059	1.4 ± 0.051	1.5 ± 0.12	1.61 ± 0.043
LAFDKLNVPVFQIVIEP [ARP7]	2.12 ± 0.058	2.23 ± 0.061	1.8 ± 0.079	1.7 ± 0.056
VEDGNILVFQVSMKANK [RPL25]	2.58 ± 0.043	2.46 ± 0.047	2.5 ± 0.047	2.69 ± 0.037
IGGRRFSEGTSADREIQ [RPT4]	2.51 ± 0.085	2.59 ± 0.088	1.98 ± 0.12	2.77 ± 0.19
ERLKVPILVTLVSDSEI [POP6]	1.55 ± 0.035	1.86 ± 0.04	1.58 ± 0.066	1.66 ± 0.025
SIWGNGYSGYGNGITNT [SNF5]	3.26 ± 0.1	3.4 ± 0.12	3.35 ± 0.084	3.34 ± 0.051
MNQSSIDRGLFRSLFFR [RPB2]	3.16 ± 0.16	2.97 ± 0.2	2.63 ± 0.26	2.94 ± 0.08
FNRENKVSPADAAKKAL [RPS26A]	3.42 ± 0.13	3.01 ± 0.14	3.17 ± 0.048	3.4 ± 0.073
EKGKKVTGFKDEVLETV [RPS1A]	1.32 ± 0.13	1.31 ± 0.1	–	1.37 ± 0.1
RAGVSQVLNRYTYSSTL [RPB2]	2.96 ± 0.044	2.9 ± 0.041	2.9 ± 0.038	2.76 ± 0.036
TGLKLYSRITLIIDDPS [RPP1]	2.22 ± 0.065	2.8 ± 0.077	2.17 ± 0.062	2.75 ± 0.086
VRLGEEDMIRSVFDATS [RPN1]	–	–	3.12 ± 0.23	–
VLKTLIEKFEQVPDSLD [RPN6]	3.16 ± 0.093	3.21 ± 0.081	3.37 ± 0.06	3.21 ± 0.086
